In general, IC50 refers to the point on the concentration scale where inhibition reaches its midpoint.

The series addresses HIV-1 RT wild type (HIV-1, UniProt P04585;P04585 588-1147;588-1027). In words: competition (inhibition of polymerase activity); 6 mM Mg2+; 24 nM template-primer; 80 mM KCl, 50 mM Tris-Cl pH 8.0, 6 mM MgCl2, 1 mM DTT, 0.1 mg/ml BSA, 24 nM template-primer (16S rRNA/VP200), dNTPs, 25 ng RT per 50 ul, 37 C, 15 min; IC50 of p. The conditions noted are these: protein: recombinant; copies: 1;1.

Regarding ATCCGCCTGATTAGCGATACTCAGAAGGATAAACTGTCCAGAACTTGGA (ssDNA) [RT1t49], the IC50 was determined as 1.5 ± 0.03 nM.

Source of the values: paper PMC1266348, “HIV-1 reverse transcriptase mutations that confer decreased in vitro susceptibility to anti-RT DNA aptamer RT1t49 confer cross resistance to other anti-RT aptamers but not to standard RT inhibitors”.
